Assay [1] concerns the target T1, endogenous IRF3 of HEK293T cells (human (endogenous in HEK293T)), Q14653.
T1 chain: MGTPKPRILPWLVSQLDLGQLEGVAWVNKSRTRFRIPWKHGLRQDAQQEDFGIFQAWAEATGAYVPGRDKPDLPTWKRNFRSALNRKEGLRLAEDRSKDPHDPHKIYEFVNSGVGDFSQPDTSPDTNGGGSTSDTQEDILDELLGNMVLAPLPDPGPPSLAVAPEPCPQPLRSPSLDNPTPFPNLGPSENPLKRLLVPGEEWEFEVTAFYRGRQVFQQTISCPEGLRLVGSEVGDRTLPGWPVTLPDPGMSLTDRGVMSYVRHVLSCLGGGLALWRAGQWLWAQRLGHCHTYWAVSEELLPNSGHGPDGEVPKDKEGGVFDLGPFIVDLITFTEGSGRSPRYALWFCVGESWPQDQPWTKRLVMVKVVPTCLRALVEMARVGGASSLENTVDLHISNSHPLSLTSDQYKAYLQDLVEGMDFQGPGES
The experiment in a line: native gel or EMSA; native PAGE (deoxycholate in the cathode buffer, on ice) of HEK293T lysates, Western blot; cells stimulated with poly(I·C) 10 μg/ml for 12 h, with or without Flag-FAF1. The settings on record: remark: other sources report otherwise.

Assay [2] has as its target T2, GFP-tagged wild-type IRF3 (IRF3-WT-GFP), in HEK293T cells, Q14653.
T2 chain: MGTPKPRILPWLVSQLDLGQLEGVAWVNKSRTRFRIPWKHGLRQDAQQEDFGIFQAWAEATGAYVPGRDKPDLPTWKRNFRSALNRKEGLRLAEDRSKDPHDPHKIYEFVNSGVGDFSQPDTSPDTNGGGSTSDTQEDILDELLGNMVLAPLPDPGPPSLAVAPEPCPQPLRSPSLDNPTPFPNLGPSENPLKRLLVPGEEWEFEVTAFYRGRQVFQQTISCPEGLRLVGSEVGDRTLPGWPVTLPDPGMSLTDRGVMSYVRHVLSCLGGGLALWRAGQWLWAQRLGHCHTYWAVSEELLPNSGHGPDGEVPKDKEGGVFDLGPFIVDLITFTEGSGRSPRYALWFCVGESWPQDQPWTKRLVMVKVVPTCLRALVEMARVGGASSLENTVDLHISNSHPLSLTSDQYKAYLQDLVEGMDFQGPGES
Described as above. Conditions: remark: other sources report otherwise.

Data on 2 molecules can be found in paper PMC4800795.

B1: endogenous IRF3 of HEK293T cells, Q14653 1-427 (natural protein)
chain: MGTPKPRILPWLVSQLDLGQLEGVAWVNKSRTRFRIPWKHGLRQDAQQEDFGIFQAWAEATGAYVPGRDKPDLPTWKRNFRSALNRKEGLRLAEDRSKDPHDPHKIYEFVNSGVGDFSQPDTSPDTNGGGSTSDTQEDILDELLGNMVLAPLPDPGPPSLAVAPEPCPQPLRSPSLDNPTPFPNLGPSENPLKRLLVPGEEWEFEVTAFYRGRQVFQQTISCPEGLRLVGSEVGDRTLPGWPVTLPDPGMSLTDRGVMSYVRHVLSCLGGGLALWRAGQWLWAQRLGHCHTYWAVSEELLPNSGHGPDGEVPKDKEGGVFDLGPFIVDLITFTEGSGRSPRYALWFCVGESWPQDQPWTKRLVMVKVVPTCLRALVEMARVGGASSLENTVDLHISNSHPLSLTSDQYKAYLQDLVEGMDFQGPGES
One may read the stoichiometry N as a count of units in the complex or per binding partner. Regarding B1, the stoichiometry N in assay [1] is 2.

B2: GFP-tagged wild-type IRF3 (IRF3-WT-GFP), in HEK293T cells, Q14653 1-427 (natural protein)
chain: MGTPKPRILPWLVSQLDLGQLEGVAWVNKSRTRFRIPWKHGLRQDAQQEDFGIFQAWAEATGAYVPGRDKPDLPTWKRNFRSALNRKEGLRLAEDRSKDPHDPHKIYEFVNSGVGDFSQPDTSPDTNGGGSTSDTQEDILDELLGNMVLAPLPDPGPPSLAVAPEPCPQPLRSPSLDNPTPFPNLGPSENPLKRLLVPGEEWEFEVTAFYRGRQVFQQTISCPEGLRLVGSEVGDRTLPGWPVTLPDPGMSLTDRGVMSYVRHVLSCLGGGLALWRAGQWLWAQRLGHCHTYWAVSEELLPNSGHGPDGEVPKDKEGGVFDLGPFIVDLITFTEGSGRSPRYALWFCVGESWPQDQPWTKRLVMVKVVPTCLRALVEMARVGGASSLENTVDLHISNSHPLSLTSDQYKAYLQDLVEGMDFQGPGES
B2 gave a stoichiometry N in assay [2] of 2.
